Results: PMC2858264

Tests used:
Experiment in all cases: purified protein
purified protein [1] = substrate: C[C@H](O)CSCCS(=O)(=O)O; assay type: biochemical, Xanthobacter versatilis; settings: oxidation, 10 mM NAD+, pH 7.5, 30 °C
purified protein [2] = substrate: CC(=O)CSCCS(=O)(=O)O; assay type: biochemical, Xanthobacter versatilis; settings: reduction, 0.17 mM NADH, pH 7.5, 30 °C
purified protein [3] = substrate: C[C@@H](O)CSCCS(=O)(=O)O; assay type: biochemical, Xanthobacter versatilis; settings: oxidation, 10 mM NAD+, pH 7.5, 30 °C
purified protein [4] = substrate: O=S(=O)(O)CCSCCO; assay type: biochemical, Xanthobacter versatilis; settings: oxidation, 5 mM NAD+, pH 7.5, 30 °C
purified protein [5] = substrate: C[C@H](O)CSCCS(=O)(=O)O; settings: oxidation, 10 mM NAD+, pH 7.5, 30 °C
purified protein [6] = substrate: CC(=O)CSCCS(=O)(=O)O; settings: reduction, 0.17 mM NADH, pH 7.5, 30 °C
purified protein [7] = substrate: C[C@@H](O)CSCCS(=O)(=O)O; settings: oxidation, 10 mM NAD+, pH 7.5, 30 °C

Protein	Km (purified protein [1])	kcat (purified protein [1])	kcat/Km (purified protein [1])	Km (purified protein [2])	Km (purified protein [3])	kcat (purified protein [3])	kcat/Km (purified protein [3])	Km (purified protein [4])	Km (purified protein [5])	kcat (purified protein [5])	kcat/Km (purified protein [5])	Km (purified protein [6])	kcat (purified protein [6])	kcat/Km (purified protein [6])	Km (purified protein [7])	kcat (purified protein [7])	kcat/Km (purified protein [7])
rR-HPCDH1 (Xanthobacter versatilis) (protein) SRVAIVTGASSGNGLAIATRFLARGDRVAALDLSAETLEETARTHWHAYADKVLRVRADVADEGDVNAAIAATMEQFGAIDVLVNNAGITGNSEAGVLHTTPVEQFDKVMAVNVRGIFLGCRAVLPHMLLQGAGVIVNIASVASLVAFPGRSAYTTSKGAVLQLTKSVAVDYAGSGIRCNAVCPGMIETPMTQWRLDQPELRDQVLARIPQKEIGTAAQVADAVMFLAGEDATYVNGAALVMDGAYTAI	220 ± 70 µM	0.12 ± 0.01 s⁻¹	530 M⁻¹ s⁻¹	68 ± 10 µM	96 ± 7 µM	48 ± 1 s⁻¹	500000 M⁻¹ s⁻¹	960 ± 100 µM									
rS-HPCDH1 (Xanthobacter versatilis) (protein) MLDAEVIAITGGAAGIGLAVAHAAIRAGARVALIDRDGACAQRAAAEFGAAAWGVGADVTDEAAITAAMAGAQRALGPLTGLVNNAGIAGFGSVHATEVETWSRIMAVNVTGTFLASKAALFGMLERGRGAIVNFGSVAGLVGIPTMAAYCAAKGAVVNLTRQMAADYSGRGIRVNVVCPGTVAGTDMGRQLLGTDCDPELEARRLAKYPMGRFGTPEDIAEAAVFLLSTKAAFVTGSVLAVDGGMTAI									220 ± 20 µM	28 s⁻¹	130000 M⁻¹ s⁻¹	240 ± 10 µM	20 s⁻¹	83000 M⁻¹ s⁻¹	5200 ± 300 µM	2.4 s⁻¹	460 M⁻¹ s⁻¹
